Source: patent US12329806B2, “Compound for modulating rlr, tlr, oas and/or oncostatin m pathways, use thereof for preparing a medicine, composition, method for modulating said pathways and method of treatment” (Instituto Butantan, priority 2018, dated 2025)

Tested on: Equine melanoma tumors
Test: RNA-Seq transcriptomic analysis (DEGs, EdgeR) of treated equine melanoma tumors excised 6 h and 12 h after injection
Format: in vivo, Equus caballus
Conditions: for SELE expression, average / SELE expression, median: RNA-Seq
Method: Equine melanoma tumors were used in experiments with the administration of the compound of the invention, for transcriptomic analysis at different points in time. This translational experiment was carried out at Sao Joaquim Farm (SP) and the samples were transported to the Instituto Butantan, in the city of Sao Paulo. The experiment was designed with non-treated control samples at 0 h (PBS) and the treated tumors were excised 6 h and 12 h after the injection of 1 mg of polypeptide per kg of tumor. For each time point, two tumors were removed from three different animals, producing six tumors per time point. All 18 cDNA libraries were prepared following Illumina's TruSeq® RNA Preparation Kit Kits v2 protocol, and then sequenced using HiSeq 1500 Illumina technology, generating 2×100 bp chain-specific paired readings. The raw sequencing readings had the contaminants removed with bowtie2 2.2.5, and then trimmomatic was used for quality control of the sequences, to cut and remove readings with regions of low complexity and enriched with homopolymers, poly-A/T/N tails, low quality adapter strings and bases, with the fastq-mcf 1.04.662 software. The readings were filtered if more than 90% of the readings correspond to regions of homopolymer or of low complexity. Subsequently, cut if the average quality score was less than 25 in a window size equal to 15. After cutting, all readings less than 40 bp were discarded.
Total RNA was isolated from cells grown with Trizol (Ambion, Life Technologies) and purified with a Mini RNAspin kit (GE Healthcare) according to the manufacturer's instructions, with prolonged treatment with DNase I for 1 h.
RNA quality was assessed with an Agilent 2100 Bioanalyzer RNA Pico assay. RNA was quantified using the Rib-Green Quant-iT and RNA reagent kit (Invitrogen, Life Technologies). The messenger RNA (mRNA) was isolated and used to prepare the complementary DNA (cDNA) libraries following the instructions of the TruSeq RNA Sample Prep Kit V2 (Illumina, San Diego, Calif.). Briefly, the mRNA was isolated with oligo-dT and purified. Then, the mRNA was fragmented by heating to 94° C. (4 min) in fragmentation buffer. The double-stranded cDNA was synthesized, repaired at the end and tail A. The sequencing adapters were then attached to the cDNA fragments, according to the manufacturer's protocol. The cDNA fragments were enriched after 15 rounds of PCR amplification. The quality control of the library was assessed by size distribution of the cDNA libraries measured using 2100 Bioanalyzer with DNA1000 assay (Agilent Technologies) and a StepOnePlus real-time PCR system from ABI were used to quantify the sample library before sequencing. The cDNA library was sequenced on the Illumina HiSeq 1500 System, in a final flow cell paired with Rapid in a 200 pair strategy of 2-101 bp pairing strategy.
The in-silico analysis of RNA-Seq comprises several quality steps and transcriptomic quantification algorithms that are understood in the present invention as “pipeline”. (FIG. 19). The quality check was performed using FastQC3. Hisat214 was used to align readings against the horse's reference genome (Equus caballus) (annotation version 89). To map and quantify transcriptions, the feature Counts was used, resulting in a table of genetic IDs versus samples with raw reading counts. Then, differentially expressed genes (DEGs) were calculated using the EdgeR package. Genes with less than one count per million (CPM) were filtered out. The DEGs were calculated by crossing the sample values of a) 6 h after treatment (6 h)×control (0 h); b) 12 h after treatment (12 h)×control; and also, c) 12 h×6 h. DEGs are defined as an absolute value of log 2 fold change between two groups (LFC)>1 and false discovery rate (FDR)<0.05. […]

[1] = RNA-seq median expression, 12 h

B1: Amblyomin-X: recombinant Kunitz type protein identified in a cDNA library of Amblyomma sculptum tick salivary glands (protein)
chain: MRQLAVLALVIFTGMCVESQSANSKAVCNLPKLAGDETCSNKTEIRWYYNGTACEAFIFKGCGGNDNNFDRVDDCQRLCEEQTHFHFESPKLICFKVQDYWILNDIMKKNLTGISLKSEEEDADSGEID
modifications: Amblyomin-X
notes: recombinant Kunitz type protein identified in a cDNA library of Amblyomma sculptum tick salivary glands
SELE expression, average (6 h after treatment): 7.15 CPM
SELE expression, median (6 h after treatment): 4.56 CPM
SELE expression, average (12 h after treatment): 4.85 CPM
SELE expression, median (12 h after treatment): 5.63 CPM
median2, gene ACTN1 (RNA-seq median expression, 6 h): 153.3001 CPM
median2, gene BCL3 (RNA-seq median expression, 6 h): 46.57 CPM
median2, gene BIRC3 (RNA-seq median expression, 6 h): 47.3192 CPM
median2, gene CAD (RNA-seq median expression, 6 h): 52.82 CPM
median2, gene CCL2 (RNA-seq median expression, 6 h): 171.527 CPM
median2, gene CDO1 (RNA-seq median expression, 6 h): 22.45 CPM
median2, gene CTSL (RNA-seq median expression, 6 h): 34.0817 CPM
median2, gene CXCL6 (RNA-seq median expression, 6 h): 6.189 CPM
median2, gene DDX58 (RNA-seq median expression, 6 h): 22.55 CPM
median2, gene F12 (RNA-seq median expression, 6 h): 4.891 CPM
median2, gene FOSL1 (RNA-seq median expression, 6 h): 14.18 CPM
median2, gene FSCN1 (RNA-seq median expression, 6 h): 97.19 CPM
median2, gene HMOX1 (RNA-seq median expression, 6 h): 99.11 CPM
median2, gene HSPA6 (RNA-seq median expression, 6 h): 15.93 CPM
median2, gene IFI35 (RNA-seq median expression, 6 h): 48.07 CPM
median2, gene IFIH1 (RNA-seq median expression, 6 h): 13.29 CPM
median2, gene IFIT1 (RNA-seq median expression, 6 h): 28.13 CPM
median2, gene IL1B (RNA-seq median expression, 6 h): 20.23 CPM
median2, gene IL1RN (RNA-seq median expression, 6 h): 120.3935 CPM
median2, gene IL13RA1 (RNA-seq median expression, 6 h): 29.3 CPM
median2, gene IRF9 (RNA-seq median expression, 6 h): 72.39 CPM
median2, gene ITGA1 (RNA-seq median expression, 6 h): 7.06 CPM
median2, gene MYH1 (RNA-seq median expression, 6 h): 0 CPM
median2, gene MYH3 (RNA-seq median expression, 6 h): 1.418 CPM
median2, gene MYL2 (RNA-seq median expression, 6 h): 0 CPM
median2, gene MYLPF (RNA-seq median expression, 6 h): 1.314 CPM
median2, gene NTNG1 (RNA-seq median expression, 6 h): 1.059 CPM
median2, gene OAS2 (RNA-seq median expression, 6 h): 34.26 CPM
median2, gene PARP9 (RNA-seq median expression, 6 h): 16.34 CPM
median2, gene PER1 (RNA-seq median expression, 6 h): 32.08 CPM
median2, gene PIK3R6 (RNA-seq median expression, 6 h): 5.162 CPM
median2, gene RUNX1 (RNA-seq median expression, 6 h): 8.949 CPM
median2, gene SAA1 (RNA-seq median expression, 6 h): 7.68 CPM
median2, gene SELP (RNA-seq median expression, 6 h): 22.34 CPM
median2, gene SLPI (RNA-seq median expression, 6 h): 230.2294 CPM
median2, gene SOCS3 (RNA-seq median expression, 6 h): 12.21 CPM
median2, gene STAT1 (RNA-seq median expression, 6 h): 76.48 CPM
median2, gene TAT (RNA-seq median expression, 6 h): 1.235 CPM
median2, gene TEAD4 (RNA-seq median expression, 6 h): 21.64 CPM
median2, gene THBS1 (RNA-seq median expression, 6 h): 43.5 CPM
median2, gene TLR2 (RNA-seq median expression, 6 h): 59.58 CPM
median2, gene TREM1 (RNA-seq median expression, 6 h): 31.36 CPM
median3, gene ACTN1 [1]: 165.3412 CPM
median3, gene BCL3 [1]: 39.97 CPM
median3, gene BIRC3 [1]: 47.38 CPM
median3, gene CAD [1]: 50.34 CPM
median3, gene CCL2 [1]: 418.8519 CPM
median3, gene CDO1 [1]: 12.71 CPM
median3, gene CTSL [1]: 33.8889 CPM
median3, gene CXCL6 [1]: 1.108 CPM
median3, gene DDX58 [1]: 31.9 CPM
median3, gene F12 [1]: 8.671 CPM
median3, gene FOSL1 [1]: 11.46 CPM
median3, gene FSCN1 [1]: 152.3466 CPM
median3, gene HMOX1 [1]: 105.6427 CPM
median3, gene HSPA6 [1]: 53.79 CPM
median3, gene IFI35 [1]: 66.19 CPM
median3, gene IFIH1 [1]: 27.95 CPM
median3, gene IFIT1 [1]: 34.11 CPM
median3, gene IL1B [1]: 10.07 CPM
median3, gene IL1RN [1]: 118.3058 CPM
median3, gene IL13RA1 [1]: 23.98 CPM
median3, gene IRF9 [1]: 85.24 CPM
median3, gene ITGA1 [1]: 6.155 CPM
median3, gene MYH1 [1]: 0 CPM
median3, gene MYH3 [1]: 1.817 CPM
median3, gene MYL2 [1]: 0 CPM
median3, gene MYLPF [1]: 1.629 CPM
median3, gene NTNG1 [1]: 0.744 CPM
median3, gene OAS2 [1]: 82.84 CPM
median3, gene PARP9 [1]: 18.56 CPM
median3, gene PER1 [1]: 39.99 CPM
median3, gene PIK3R6 [1]: 4.433 CPM
median3, gene RUNX1 [1]: 9.266 CPM
median3, gene SAA1 [1]: 11.7 CPM
median3, gene SELP [1]: 20.58 CPM
median3, gene SLPI [1]: 620.7695 CPM
median3, gene SOCS3 [1]: 11.57 CPM
median3, gene STAT1 [1]: 83.64 CPM
median3, gene TAT [1]: 9.52 CPM
median3, gene TEAD4 [1]: 39.12 CPM
median3, gene THBS1 [1]: 31.32 CPM
median3, gene TLR2 [1]: 93.64 CPM
median3, gene TREM1 [1]: 24.25 CPM
logFC6, gene ACTN1 (RNA-seq, 6 h after treatment): 1.003
logFC6, gene BCL3 (RNA-seq, 6 h after treatment): 1.936
logFC6, gene BIRC3 (RNA-seq, 6 h after treatment): 1.275
logFC6, gene CAD (RNA-seq, 6 h after treatment): 1.227
logFC6, gene CCL2 (RNA-seq, 6 h after treatment): 2.79
logFC6, gene CDO1 (RNA-seq, 6 h after treatment): −1.785
logFC6, gene CTSL (RNA-seq, 6 h after treatment): 1.376
logFC6, gene CXCL6 (RNA-seq, 6 h after treatment): 5.945
logFC6, gene DDX58 (RNA-seq, 6 h after treatment): 1.434
logFC6, gene F12 (RNA-seq, 6 h after treatment): 2.559
logFC6, gene FOSL1 (RNA-seq, 6 h after treatment): 4.578
logFC6, gene FSCN1 (RNA-seq, 6 h after treatment): 1.457
logFC6, gene HMOX1 (RNA-seq, 6 h after treatment): 1.443
logFC6, gene HSPA6 (RNA-seq, 6 h after treatment): 5.376
logFC6, gene IFI35 (RNA-seq, 6 h after treatment): 1.513
